Measured values reported in patent US20230203172A1 (SHANGHAI MABGEEK BIOTECH, published 2023).
Positions count from the first letter of the chain named.

B1: humanized anti-hIL-4R alpha monoclonal antibody 131-Hu (antibody, human IgG4 S228P, kappa, V domains shown)
VH: EVQLVESGGGLVQPGGSLRLSCAASGFTFSDYGMHWVRQAPGKGLEWVSYISSGSSTIYYADTVKGRFTISRDNAKNSLYLQMNSLRAEDTAVYYCARISTVVAKRYAMDYWGQGTLVTVSS
VL: DIQMTQSPSSLSASVGDRVTITCRASQDISNYLNWYQQKPGKAPKLLIYYTSRLHSGVPSRFSGSGSGTDFTLTISSLQPEDIATYYCQEVNMLPFTFGQGTKVEIKR
notes: Humanized, human IgG4 constant region; expressed in HEK293, purified on ProteinA
B2: humanized anti-hIL-4R alpha monoclonal antibody 136-Hu (antibody, human IgG4 S228P, kappa, V domains shown)
VH: B1 VH with S56T
VL: B1 VL with E90Q, V91I, M93A, V104L
notes: as for B1
B3: humanized anti-hIL-4R alpha monoclonal antibody 59-Hu (antibody, human IgG4 S228P, kappa, V domains shown)
VH: EVQLVESGGGLVQPGGSLRLSCAASGFTFSDYGIHWVRQAPGKGLEWVSYIRSDSSIIHYADTVKGRFTISRDNAKNSLYLQMNSLRAEDTAVYYCARGRDRGYFDYWGQGTLVTVSS
VL: EIVLTQSPATLSLSPGERATLSCSASSSVSYMYWYQQKPGQAPRPWIYLTSNLASGVPARFSGSGSGTDFTLTISSLEPEDFAVYYCQQWTSIPFTFGQGTKVEIKR
notes: as for B1
B4: humanized anti-hIL-4R alpha monoclonal antibody 236-Hu (antibody, human IgG4 S228P, kappa, V domains shown)
VH: QVQLVQSGAEVKKPGASVKVSCKASGYTFTDYNVDWVRQAPGQGLEWIGTINPNNGGILSNQKFKGRVTITVDTSASTAYMELSSLRSEDTAVYYCGRGGLRRRGFMDYWGQGTLVTVSS
VL: B3 VL with S24R, S30I, M32I, Y33H, L49A, T50A, A54P, T91S, I93N, F95P
notes: as for B1

These binders were tested against human IL-4R alpha on cells (TF-1 cells; human peripheral blood mononuclear cells) (human, UniProt P24394 26-825) (assay: cell-based or functional assay).

In order of rising “IC50 (ng/ml), inhibition of IL-4-induced TF-1 cell proliferation” value:
1. B4  54.6 ng/mL
2. B2  84.3 ng/mL
3. B1  90.6 ng/mL
4. B3  296 ng/mL

These binders were tested against T1, hIL-4R alpha-ECD-Flag (human, UniProt P24394 26-232) (assay: SPR, Biacore T200, antibody captured on Protein-A chip, hIL-4R alpha-ECD-Flag as analyte).
T1 construct: range 26-232; Analyte of the Biacore experiment
Method: The affinity of six purified humanized antibodies was detected by Biacore T200 (GE healthcare), with the reference antibody Dupilumab as a control. The specific experimental method was as follows: a Protein-A CMS sensor chip (GE healthcare) was used, with FC1 (Flow cell 1) as a reference channel, and FC2 (Flow cell 2) as a sample channel. Humanized antibodies or control antibody were captured in the FC2 channel, and then hIL-4R alpha-ECD-Flag at different concentrations was injected. Cycling conditions were as follows: an analyte was injected into all channels of FCs at 50 μl/min for 4 min, with a dissociation time of 20 min, and 6M guanidine hydrochloride (Sinopharm Chemical Reagent Co., Ltd.) was injected at a rate of 10 μl/min for 30 s for surface regeneration. Then, signal differences and affinity for interaction between captured antibodies and non-captured antibodies were calculated by Biacore T200 Evaluation Software Ver 1.0.

In order of rising Kd:
1. B2  0.154 nM
2. B4  0.173 nM
3. B3  0.25 nM
4. B1  0.33 nM

In order of falling koff:
1. B3  0.000284 s⁻¹
2. B4  0.000255 s⁻¹
3. B1  0.000111 s⁻¹
4. B2  9.8e-05 s⁻¹

In order of rising kon:
1. B1  335000 M⁻¹ s⁻¹
2. B2  635000 M⁻¹ s⁻¹
3. B3  1.14e+06 M⁻¹ s⁻¹
4. B4  1.48e+06 M⁻¹ s⁻¹
